Measured values as given in patent KR20180136327A (dated 2018).

Molecular target: T1, Endothelin receptor type A (ET A) on cells (human, UniProt P25101 21-427)
T1 chain: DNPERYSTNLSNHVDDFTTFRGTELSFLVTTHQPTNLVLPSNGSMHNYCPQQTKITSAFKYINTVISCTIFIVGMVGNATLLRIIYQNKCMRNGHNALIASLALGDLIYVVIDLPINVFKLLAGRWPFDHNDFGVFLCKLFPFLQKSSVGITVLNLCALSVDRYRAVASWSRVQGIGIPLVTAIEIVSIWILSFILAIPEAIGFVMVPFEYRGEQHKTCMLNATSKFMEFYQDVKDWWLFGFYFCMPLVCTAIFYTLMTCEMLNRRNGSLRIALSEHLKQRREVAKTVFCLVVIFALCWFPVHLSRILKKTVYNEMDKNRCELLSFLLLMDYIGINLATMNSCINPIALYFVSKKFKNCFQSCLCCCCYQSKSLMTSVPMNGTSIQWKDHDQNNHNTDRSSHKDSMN
Test: cell-based or functional assay

K i; inhibition of signalling induced by 10 nM ET-1 (cytosolic Ca2+, Fura-2-AM 340/380 nm ratio) in ET A expressed CHO-K1 stable cell line: 56 nM
K i; inhibition of signalling induced by 10 nM ET-1 (cytosolic Ca2+, Fura-2-AM 340/380 nm ratio) in HT-29 colon cancer cells: 51 nM
B1: 발굴항체 (anti-ET A human antibody, VH SEQ ID NO 12 / VL SEQ ID NO 13) fused to Cκ, scAb format (scFv, V domains shown)
VH: EVQLVESGAEVRKPGASVKVSCKASGYTFTSSDINWIRQATGQGLEWMGYMNPKNGNTDYAQKFQGRISMTRDSSISTAYMELSSLRSEDTAVYYCAKDRYGSGTYGFGMDVWGPGTLVTVS
VL: DIVMTQSPSAMSASVGDRVSITCRASQGINNYLAWFQQKPGKVPKRLMDVGSILQSGIPSRFRGRGSGTQFTLTISSLQAEDSGTYFCLQHNTYPLTFGPGTKVEIKR
